The values below come from the supplement of paper PMC5998384.

The subject of data set [1] is HeLa Kyoto. The experiment in a line: thermal stability score vs G1/S (z-score of summed log2 fold changes over temperatures); higher = more thermally stable than in G1/S.
Data set [2] deals with HeLa Kyoto. The experiment in a line: solubility in G1/S (NP-40 vs SDS abundance) (log2 ratio); higher = more soluble. The settings on record: cell cycle stage: G1/S.
Data set [3] concerns HeLa Kyoto. Briefly: solubility change mitosis vs G1/S (difference of NP-40 vs SDS log2 ratios) (log2 ratio difference); higher = more soluble in mitosis.
Data set [4] relates to HeLa Kyoto. The experiment in a line: melting temperature (median over replicates), in situ; higher = more thermally stable.
[5] abbreviates: cell cycle stage: early G1 (4.5 h after nocodazole release).
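For melting temperature (median over replicates), in situ in this document: HeLa Kyoto cells synchronized by double thymidine or nocodazole block, proteins quantified by TMT10plex mass spectrometry, three independent biological replicates.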
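For solubility change mitosis vs G1/S (difference of NP-40 vs SDS log2 ratios) in this document: synchronized HeLa Kyoto cells (double thymidine block for G1/S, nocodazole release for mitosis), protein amounts in NP-40 versus SDS lysates quantified by mass spectrometry, three biological replicates.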
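For solubility in G1/S (NP-40 vs SDS abundance) in this document: HeLa Kyoto cells arrested at G1/S by double thymidine block, proteins quantified by TMT10plex mass spectrometry in mild NP-40 versus SDS extracts, three biological replicates.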
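For thermal stability score vs G1/S (z-score of summed log2 fold changes over temperatures) in this document: synchronized HeLa Kyoto cells, proteins quantified by TMT10plex mass spectrometry, three biological replicates, mitosis taken 0.5 h after nocodazole release, G1/S directly after double thymidine block.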

NEK7, sequence (chain, as listed by the source): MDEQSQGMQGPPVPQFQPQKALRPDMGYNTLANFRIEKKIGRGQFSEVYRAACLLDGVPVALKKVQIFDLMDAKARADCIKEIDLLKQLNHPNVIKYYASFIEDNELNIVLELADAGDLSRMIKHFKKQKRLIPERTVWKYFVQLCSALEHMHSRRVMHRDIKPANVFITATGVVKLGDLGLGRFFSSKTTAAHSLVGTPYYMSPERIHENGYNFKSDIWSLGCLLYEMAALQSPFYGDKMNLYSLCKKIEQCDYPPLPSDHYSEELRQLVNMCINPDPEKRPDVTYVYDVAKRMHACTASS

For the substance CTSZ, the thermal stability score was -1.5 in data set [1] (setting [5]) and -2.8 in data set [1] (cell cycle stage: mitosis). For the same substance, the “solubility in G1/S (log2)” value in data set [2] was found to be 0.192. In addition, the “solubility change mitosis (log2)” value in data set [3] is -0.0457. The melting temperature in data set [4] (cell cycle stage: G1/S) is 56.1 °C; in data set [4] (cell cycle stage: mitosis), 55 °C.

With “MDVTSSSGGGGDPRQIEETKPLLGGDVSAPEGTKMGAVPCRRALLLCNGMRYKLLQEGDIQVCVIRHPRTFLSKILTSKFLRRWEPHHLTLADNSLASATPTGYMENSVSYSAIEDVQLLSWENAPKYCLQLTIPGGTVLLQAANSYLRDQWFHSLQWKKKIYKYKKVLSNPSRWEVVLKEIRTLVDMALTSPLQDDSINQAPLEIVSKLLSENTNLTTQEHENIIVAIAPLLENNHPPPDLCEFFCKHCRERPRSMVVIEVFTPVVQRILKHNMDFGKCPRLRLFTQEYILALNELNAGMEVVKKFIQSMHGPTGHCPHPRVLPNLVAVCLAAIYSCYEEFINSRDNSPSLKEIRNGCQQPCDRKPTLPLRLLHPSPDLVSQEATLSEARLKSVVVASSEIHVEVERTSTAKPALTASAGNDSEPNLIDCLMVSPACSTMSIELGPQADRTLGCYVEILKLLSDYDDWRPSLASLLQPIPFPKEALAHEKFTKELKYVIQRFAEDPRQEVHSCLLSVRAGKDGWFQLYSPGGVACDDDGELFASMVHILMGSCYKTKKFLLSLAENKLGPCMLLALRGNQTMVEILCLMLEYNIIDNNDTQLQIISTLESTDVGKRMYEQLCDRQRELKELQRKGGPTRLTLPSKSTDADLARLLSSGSFGNLENLSLAFTNVTSACAEHLIKLPSLKQLNLWSTQFGDAGLRLLSEHLTMLQVLNLCETPVTDAGLLALSSMKSLCSLNMNSTKLSADTYEDLKAKLPNLKEVDVRYTEAW [CMIP]”, the results for the thermal stability score in data set [1] (setting [5]) and in data set [1] (cell cycle stage: mitosis) were 0.861 and 0.998, respectively. In addition, in data set [2], the “solubility in G1/S (log2)” value stood at 0.271. Moreover, the “solubility change mitosis (log2)” value in data set [3] is -0.224. The melting temperature in data set [4] (cell cycle stage: G1/S) was determined as 50.5 °C; in data set [4] (cell cycle stage: mitosis), 48.7 °C.

On to NEK7, for which the thermal stability score in data set [1] (setting [5]) worked out at 1.38; in data set [1] (cell cycle stage: mitosis) it was 1.14. Moreover, in data set [2], the “solubility in G1/S (log2)” value was found to be 0.62. The “solubility change mitosis (log2)” value in data set [3] was -0.165. For the same substance, the melting temperature in data set [4] (cell cycle stage: G1/S) was found to be 49.1 °C; in data set [4] (cell cycle stage: mitosis) it was 49.4 °C.

Regarding “MSDEGSRGSRLPLALPPASQGCSSGGGGGGSSAGGSGNSRPPRNLQGLLQMAITAGSEEPDPPPEPMSEERRQWLQEAMSAAFRGQREEVEQMKSCLRVLSQPMPPTAGEAEQAADQQEREGALELLADLCENMDNAADFCQLSGMHLLVGRYLEAGAAGLRWRAAQLIGTCSQNVAAIQEQVLGLGALRKLLRLLDRDACDTVRVKALFAISCLVREQEAGLLQFLRLDGFSVLMRAMQQQVQKLKVKSAFLLQNLLVGHPEHKGTLCSMGMVQQLVALVRTEHSPFHEHVLGALCSLVTDFPQGVRECREPELGLEELLRHRCQLLQQHEEYQEELEFCEKLLQTCFSSPADDSMDR [HSPBP1]”, the thermal stability score in data set [1] (setting [5]) is 0.863; in data set [1] (cell cycle stage: mitosis) it was 0.675. For the same substance, the “solubility in G1/S (log2)” value in data set [2] amounted to 0.303. Further, the “solubility change mitosis (log2)” value in data set [3] amounted to 0.0712. The melting temperature came to 50.8 °C in data set [4] (cell cycle stage: G1/S) and 51.2 °C in data set [4] (cell cycle stage: mitosis).

In the case of “MALSDEPAAGGPEEEAEDETLAFGAALEAFGESAETRALLGRLREVHGGGAEREVALERFRVIMDKYQEQPHLLDPHLEWMMNLLLDIVQDQTSPASLVHLAFKFLYIITKVRGYKTFLRLFPHEVADVEPVLDLVTIQNPKDHEAWETRYMLLLWLSVTCLIPFDFSRLDGNLLTQPGQARMSIMDRILQIAESYLIVSDKARDAAAVLVSRFITRPDVKQSKMAEFLDWSLCNLARSSFQTMQGVITMDGTLQALAQIFKHGKREDCLPYAATVLRCLDGCRLPESNQTLLRKLGVKLVQRLGLTFLKPKVAAWRYQRGCRSLAANLQLLTQGQSEQKPLILTEDDDEDDDVPEGVERVIEQLLVGLKDKDTVVRWSAAKGIGRMAGRLPRALADDVVGSVLDCFSFQETDKAWHGGCLALAELGRRGLLLPSRLVDVVAVILKALTYDEKRGACSVGTNVRDAACYVCWAFARAYEPQELKPFVTAISSALVIAAVFDRDINCRRAASAAFQENVGRQGTFPHGIDILTTADYFAVGNRSNCFLVISVFIAGFPEYTQPMIDHLVTMKISHWDGVIRELAARALHNLAQQAPEFSATQVFPRLLSMTLSPDLHMRHGSILACAEVAYALYKLAAQENRPVTDHLDEQAVQGLKQIHQQLYDRQLYRGLGGQLMRQAVCVLIEKLSLSKMPFRGDTVIDGWQWLINDTLRHLHLISSHSRQQMKDAAVSALAALCSEYYMKEPGEADPAIQEELITQYLAELRNPEEMTRCGFSLALGALPGFLLKGRLQQVLTGLRAVTHTSPEDVSFAESRRDGLKAIARICQTVGVKAGAPDEAVCGENVSQIYCALLGCMDDYTTDSRGDVGTWVRKAAMTSLMDLTLLLARSQPELIEAHTCERIMCCVAQQASEKIDRFRAHAASVFLTLLHFDSPPIPHVPHRGELEKLFPRSDVASVNWSAPSQAFPRITQLLGLPTYRYHVLLGLVVSLGGLTESTIRHSTQSLFEYMKGIQSDPQALGSFSGTLLQIFEDNLLNERVSVPLLKTLDHVLTHGCFDIFTTEEDHPFAVKLLALCKKEIKNSKDIQKLLSGIAVFCEMVQFPGDVRRQALLQLCLLLCHRFPLIRKTTASQVYETLLTYSDVVGADVLDEVVTVLSDTAWDAELAVVREQRNRLCDLLGVPRPQLVPQPGAC [TBCD]”, the thermal stability score was -0.177 in data set [1] (setting [5]) and 0.431 in data set [1] (cell cycle stage: mitosis). Moreover, the “solubility in G1/S (log2)” value in data set [2] is -0.194. Besides, the “solubility change mitosis (log2)” value in data set [3] was -0.154. Moreover, the melting temperature in data set [4] (cell cycle stage: G1/S) was determined as 50 °C; in data set [4] (cell cycle stage: mitosis), 50.2 °C.
